Source: the nanobody polyreactivity screen of Harvey et al. (2022)

Experiment: yeast display, Sf9 membrane polyspecificity reagent, FACS + sequencing; frameworks hold sequencing errors
Outline: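 Synthetic nanobody libraries on Saccharomyces cerevisiae BJ5465 were galactose-induced for 36–48 hours, stained 1 hour at 4 °C with 10% biotinylated, detergent-solubilized Sf9 membrane reagent and enriched on streptavidin microbeads. FACS then separated cells into low and high (top ~1%) gates by anti-HA (expression) and streptavidin (reagent binding) fluorescence. Genes were colony-PCR amplified, MiSeq 2 × 250 sequenced and CDR-length filtered. A clone's polyreactivity label is that of its gate of origin.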

Row | Sequence | polyreactivity (PSR sort gate)
1 | QVQLVESGGGLVQAGGSLRLSCAASGLIFWYYAMGWYRQAPGKERELVATISWSGGSTYYADSVKGRFTISRDNAKNTVYLQMNSLKPEDTAVYYCAAVGFRAYVARGYWYYYWGQGTQVTVSS | high polyreactivity
2 | QVQLVESGGGLVQAGGSLRLSCAASGRIFTRSAMGWYRQAPGKERELVAVITRSGGSTYYADSVKGRFTISRDNAKKTVYLQMNSLKPEDTAVYYCAAKYYGEMYYWGQGTQVTVSS | low polyreactivity
3 | QVQLVESGGGLVQAGGSLRLSCAASGFTFRRYTMGWYRQAPGKERELVAAISGRGGRTYYADSVKGRFTISRDNSKNTVYLQMNSLNPEDTAVYYCAADTQYWQSSKYDYWGQGTQVTVSS | high polyreactivity
4 | QVQLVESGGGLVQAGGSLRLSCAASGGTFIANAMGWYRPAPGKERELVAAITSRGGNTYYADSVKGRFTISRDNAKNTVYLQMNSLKPEDTSVYYCAARNDKRRQYYVGQSAFDFWGQGTQVTVSS | low polyreactivity
5 | QVQLVESGGGLVQAGGSLRLSCAASGLIFYDNMGWYRPAPGKERELVAAISSSGGSTSYADSVKGRFTISRDNAKNTVYLQMNSLKPEDTAVYYCAARLVYEWRRLDYFIAWDYWGQGTQVTVSS | low polyreactivity
6 | QVQLVESGGGLVQAGGSLRLSCAASGRTLKYYAMGWYRQAPGKERELVAAITWSGTRTFYADSVKGRFTISRDNAKNTVYLQMNSLKPEDTAVYYCARTYYGGAGYEYWGQVTQVTVSS | high polyreactivity
7 | QVQLVESGGGLVQAGGSLRLSCAASGFIFTDYAMAWYRQAPGKERELVAAISYGGRTYYADSVKGRFTISRDNAKNTVYLQMNSLKPEDTAVYYCAAEKWDRYSSWSDYWGQGTQVTVSS | high polyreactivity
8 | QVQLVESGGGLVQAGGSLRLSCAASGSTFYDYAMGWYRQAPGKERELVAAISRSGGSTYYADSVKGRFTISRDNAKNTVYLQRNSLKPEDTAVYYCAASRATLLRYGYWGQGTQVTVSS | low polyreactivity
9 | QVPLVESGGGLVQSGGSLRLSCAASGSTCSRNAMGWYREAPGKERELVAAINDSGGSTYYADSVKGRFTISRDMAKNTVYLQMNSLKPEDTAVYYCNAVSPYYWDFRYDYWGQGTQVTVSS | high polyreactivity
10 | QVQLVESGGGLVQAGGSLRLSCAASGFTFGIYAMGWYRQAPGKERELVAAITSGGITKYADSVKGRFTISRDNAKNTVYLQMNSLKPEDTAVYYCAATGYRQSYDSTWYRYDYWGQGTQVTVSS | low polyreactivity
11 | QVQLVESGGGLVHAGGSLRLSCAASGSIFVRNDMGWYRPAPGKERELVAVITRSAGGTYYADSVKGRFTISRDTAKNSVYFQMNSLKPEDTAFYYCAASPSTPNKYGSWGHGTQVTVSS | high polyreactivity
12 | QVQLVESGGGLVQAGGSLRLSCAASGRIFYAYAMGWYRQAPGKEREFVAAISKRGGSTYYADSVKGRFTISRDNAKNTVYFQMNSLKPEDTAVYYCAADHEAIVRYDYWGQGTQVTVSS | low polyreactivity
13 | QVQLVESGGGLVQAGGSLRLSCAASGSTFKVYAMGWYRQAPGKERELVAVISGGGRTNYADSVKGRFTISRDNAKNTVYLQMNSLKPEDTAVYYCAAQATYHRYYTYYYWGQGTKVTVSS | high polyreactivity
14 | QVQLVESVGGLVQAGGSLRLSCAASGFTFVDNAMGWYRQAPGKERELVAAISWTGVGSTYYADSVKGRFTISRDNAKNTVYLQMNSLKPEETAVYYCAADGLSRGVPDEFDYWGQGTQVTVSS | low polyreactivity
15 | QVHLVEAGGGLVQAGGSLRYSCAASGYTFKLYAMGWYRQAPGKESELVAAITSGGSTSFADSVKGRFTISRDNAKNTVYLQMNSLKPEDTAVYYCAKRYSSYRAWYRNVGYYYWGLGTQVTVSS | high polyreactivity
16 | QVQLVESGGGLVQAGGSLRLSCAASGRIFYAYAMGWYRPAPGKERELVAAITWRGGRTFYADSVKGRFTISRDNAKNTVYLQMNSLKPEDTAVYYCATRGAPYGMDYWGQGTQVTVSS | high polyreactivity
17 | QVQLVESGGGLVQAGGSLRLSCAASGRTFGWNAMGWYRQAPGKERELVAAISRTGNTYYADSVKGRFTISRDNAKNTVYLQMNSLKPEDTAVYYCAKGRYYTPTYFRGVDLYDYWGQGTQVTVSS | low polyreactivity
18 | QVQLVGSGGGLVQAGGSLRLSCAASGRIFSSSAMGWYRQAPGKERELVASIDWSDGSTYYADSVKGRFTISRDNAKNTVYLQRNSLKPEDTAVYYCAADFVPYLIYGYWGQGTQVTVSS | low polyreactivity
19 | QVQLVESGGGLVQAGGSLRLSCAASGFIFYLYAMGWYRQAPGKERELVAAISSSGGGTYYADSVKGRFTISRDNAKNTVYLQMNSLKPEDTAVYYCNVPLSYRSEYDYWGQGTQVTVSS | high polyreactivity
20 | QVQLQESGGGLVQAGGSLRLSCAGTGNIIDADFMRWYRQAPGKERELAASSTEGGSTNYAESVKSRFTISRDNANNTVYLQMNSLKPEVTAVYYCAAIAYPYIPTYFDYDSDYFYWGQGTQVTVSR | high polyreactivity
21 | QVQLVESGGGLVQAGGSLRVSCAPSGRTFSWYAMGWYRQAPGKEREFVAAIRWSGSSTYYADSVKGRFTISRDNAKNTVYLHMNSLKPEDTAVYYCAVAAGIPQRRYYYWGHGTQVTVSS | high polyreactivity
22 | QVQRVESGGGLVQAGGSLRLSCAASGSTFVGYAMGWYRQAPGKERELVAAINDSGGSTYYADSVKGRFTISRDNAKNTVYLQMNSLKPEDTAVYYCAADSSGTSWYTFDYWGQRTQVTVSS | low polyreactivity

Row | Sequence | polyreactivity (PSR sort gate)
23 | QVQLVESGGGLVQAGGSLRLSCAASGRIFYFYAMGWYRQAPGKERELVAAIDWSGGSTYYADSVKGRFTISRDNAKNTVYLQMNSLKPEDTAVYSCAARWRSKGVQYYYWGQGSQVTVSS | high polyreactivity
24 | QVQLVESGGGLVQAGGSLRLSCAASGLIFYTYAMGWYRQAPGIERELVATISKRDGGTYYADSVKGRFTISRDNAKNTVYLQMNSLKPEDTAVYYCDAERSYSYWAYDYWGQGTQVTVSS | high polyreactivity
25 | QVQPQESGGGLVQAGGSLRLSCAASGTIFAFQTMGWYRQAPGKERELVASITYGSSTNYADSVKGRFTFSRDNANITVYVQMNSLKPEDTAVYYCAVPQAQYYYYYWGQGTQVTVSS | high polyreactivity
26 | QVQLVESGGGLVQAGGSLRLSCAASGSTFDAYAMGWYRQAPGKEWELVAAISTRGGRTDYADSVKGRFTISRDNAKNTVYLQMNSRKPEDTAVYYCTAVGARVNVRGTPAFDSWGQGTQVTVSS | high polyreactivity
27 | QVQLVDSGGGLVQAGGSLRLICAASGRTFGGNTMGWYREAPGKERELVAAISRRGGSTYYADSVKGRFSISRDNAKNTVYLQMNSLKPEDTAVYYCNKDGPSYSSYDYWGQGTQVTVSS | low polyreactivity
28 | QVQLVESGGGLVQAGGRLRLSCAASGRTLGVYTMGWYRQAPGKERELVATISYNGGSTYYADSVKGRFTISRDNAKNTVYLQMNSLKPEDTAVYYCAKAYDTTLTYNYWGQGTQVTVSS | low polyreactivity
29 | QVQLVESGGGLVQAGGSLRLSCAASGFIFFRYAMGWYRQAPGKERELVAAISSSGGSTYYADSVKGRFTISRDNAKNTVYLQMNSLKPEDTAVYYCAAPRYRIFVGLGMDYWGQGTQVTVSS | high polyreactivity
30 | QVQLVESGGVLVQAGGSLRLSCAASGSIFGNYAMGWYRQAPGKETELVAAISYRGGSTYYADSVKGRFTISRDNAKNTVYLQMNSLKPEDTAVYYCNAGGRRRIFAHSSTGDYWGQGTQVTVSS | high polyreactivity
31 | QVQLVESGGGLVQAGGSLRLSCAASGGILHYYAMGWYRQAPGKERELVAAISWSGGSTYYADSVKGRFTISRDNAKNTVYLQMNSLKPEDTAVYYCNKVGVAYIFGWMDYWGQGTQVTVSS | high polyreactivity
32 | QVQLLESGGGLVQAGGSLRLSCAASGLIFRGNDMGWYRPAPGKERELVAGINSSGSTNYADSVKGRFTISRDNAKNTVYLQMNSLKPEDTAVYDCAARAIVSFDYWGQGTQVTVSS | low polyreactivity
33 | QVQLEESGGGLVQAGGSLRLSCAASGSTIFGNTMGWYRQAPGKERELVATITRRGGSTYYADSVKGRFTISRDNAKNTVYLQMNSLKPEDTAVYYCAKRGPYTKYDYWGQGTQVTVSS | low polyreactivity
34 | QVQLVDSGGCLVQAGGSLRLSCAASGRTFYRYAMGWYRQAPGKEREFVARITTSGGSTYYADSVKGRFTISRDNAKNTVYLKMNSLKPEDTEVYYCNARGVTYAFFRFDYWGQGTQVTVSS | high polyreactivity
35 | QVQLVESGGGLVQAGGSLRLSCAASGRTFWNYAMGWYRQATGKERELVAVIRFSDGSTYYADSVKGRFTISRDNAKNTVYLQMNSLKPEDTAVYYCAAKGPRRWGSGFDYWGQGTQVTVSS | low polyreactivity
36 | QVQLVESGGGLVQAGGSLRLSCAASGSIFASYAMGWYRQAPGKERELVATITQSGGRTYYADSVKGRFTISRDNAKNTVYLQMNSLKPEDTAVYYCARRYWGGGYRMGYWGQGTQVTVSS | high polyreactivity
37 | QVQLVESGGGLVQAGGSLRLSCAASGYTFHDYAMGWYRQAPGKERELVAAISKRGGSTYYADSVKGRFTISRDNAKNTVYLQMNSLKPEDTAVYYCAKGGPHRGTGLNDYWGQGTQVTVSS | high polyreactivity
38 | QVQLVESGAGLVQAGGSLRLSCAASGFIFLAYTMGWSRQGPAKERELVAAISTSGGSTYYADSVKGRFTISRDKAKNTVYLEMNSLKPEDTGVYYCAADYSYWRGYDSWGQGTQVTVSS | high polyreactivity
39 | QVQIVESGGGLVQAGGSLRLSCAASGSTFQCYAMGWYRQAPGKERQLVAAINKSGGTTYYADSVKGRFTISRDNAKNTVYLQMNSLNPEDTAVYSCATDNPVVYQPCNMDYWGQGTQVTVSS | low polyreactivity
40 | QVQLVESGGGLVQAGGSLRLSCAASGRTLTRYTMGWYRQAPGKERELVATISRSGGNTHYADSVKGRFTISRDNAKNTVYLQMNSLKPEDTAVYYCNAVRYAIYGYDYWGQGTQVTVSS | high polyreactivity
41 | HVQLVESGGGLVQARGSLRLSCAASGSTFYAYDRGWYRQAPGKERELVAAISSTGGRTDYADSVKGRFTISRDNSKNTVYLQMNSLKPEDTAVYYCAARQLSSHYDYWGQGTQGTVSS | low polyreactivity
42 | QVQLVESGGGLVQAGGSLRLSCAASGSTFTRYAMGWNRQAPGKARELVAAINWSGTSTYYADSVKGRFTISRDNAMNTVYLQMNSLKPEATAVYYSNAYTVRSYRFDYWGQGTQVTVSS | high polyreactivity
43 | QVQLVESGRRLVQAGGSLRLSCAASGSIFIPNVMGWYRQAPRKERELVASIRSNGGTNYADSVKGRFTISRDNAKNTVYLQMNSLKPEDTAVYNCAAKRWSYRHGFDYLGQGTQVTVSS | high polyreactivity
